Source: patent US7205150B2, “Transgenic plants over-expressing plant ADP-glucose pyrophosphatase” (Universidad Publica de Navarra, priority 2000, dated 2007)

Legend:
[1] = Stability of AGPPase to pH and temperature; assay type: physicochemical; conditions: 65° C. for 30 minutes
[2] = system: AGPPase (soluble and particulate isoforms); experiment: AGPPase enzymatic assay (two-step spectrophotometric determination of G1P produced from ADPG); assay type: biochemical, barley (Hordeum vulgare), tomato (Lycopersicon sculentum)

Molecule	Heat resistance of soluble AGPPase [1]	Resistance of AGPPase to ionic detergents and proteases [2]
Soluble AGPPase: soluble isoform of AGPPase purified from barley leaves, a germin-like glycoprotein (protein, Hordeum vulgare cv. Scarlett; Soluble AGPPase deduced from cDNA, soluble isoform of AGPPase purified from barley leaves, a germin-like glycoprotein) MANAMLLPVLVSFLVLPFSAMALTQDFCVADLSCSDTPAGYPCKTGVGAGDFYYHGLAAAGNTSNLIKAAVTPAFVGQFPGVNGLGISAARLDIAVGGVVPMHTHPAASELLFVTEGTILAGFISSSSNTVYTKTLYKGDIMVFPQGLLHYQYNGGSSSAVALVAFSGPNPGLQITDYALFANNLPSAVVEKVTFLDDAQVKKLKSVLGGSG	resistant	
K proteinase: protease (Boehringer) (protein, UniProt P06873 106-384, looked up) Proteinase K: AAQTNAPWGLARISSTSPGTSTYYYDESAGQGSCVYVIDTGIEASHPEFEGRAQMVKTYYYSSRDGNGHGTHCAGTVGSRTYGVAKKTQLFGVKVLDDNGSGQYSTIIAGMDFVASDKNNRNCPKGVVASLSLGGGYSSSVNSAAARLQSSGVMVAVAAGNNNADARNYSPASEPSVCTVGASDRYDRRSSFSNYGSVLDIFGPGTSILSTWIGGSTRSISGTSMATPHVAGLAAYLMTLGKTTAASACRYIADTANKGDLSNIPFGTVNLLAYNNYQA		resistant
